Test results from patent US20230295329A1 (published 2023).

target: T1, PD-1-His protein (Cat. #10377H08H, Sino Biological) (human, UniProt Q15116 25-167); assay: ELISA, PD-1-His coated, HRP goat anti-human IgG detection
T1 construct: Bought reagent; also called huPD-1-his; hu PD-1-his; not shown: His tag of the bought protein
T1 sequence (Q15116 25-167 limits assumed): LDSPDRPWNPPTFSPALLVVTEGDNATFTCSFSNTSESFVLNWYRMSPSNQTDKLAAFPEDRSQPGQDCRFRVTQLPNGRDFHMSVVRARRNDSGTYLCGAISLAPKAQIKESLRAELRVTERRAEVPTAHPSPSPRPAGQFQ

OD value MAX	Binder
1.21	H005-1 (antibody, V domains shown) VH: EVQLVESGGGLVQPGGSLRLSCAASGFTFSSYMMSWVRQAPGKGLEWVATISGGGANTYYPDSVKGRFTISRDNAKNSLYLQMNSLRAEDTAVYYCARQLYYFDYWGQGTTVTVSS VL: DIQMTQSPSSLSASVGDRVTITCLASQTIGTWLTWYQQKPGKAPKLLIYTATSLADGVPSRFSGSGSGTDFTLTISSLQPEDFATYYCQQVYSIPWTFGGGTKVEIKR
1.26	Hu32a-85.IgG4AA (antibody, V domains shown, Full-length IgG4-AA (S228P, F234A, L235A) antibody with kappa light chain) VH: EVQLVQSGAEVKKPGSSVKVSCKASDFTFTDYEIHWVKQAPGHGLEWIGLFDPETGGIVYNQKFKGKATLTADKSTSTAYMEFSSLRSEDTAVYYCTREGYNRDWYFDVWGQGTTVTVSS VL: DIVMTQTPLSLPVTPGEPASISCRSSQSLVHSTGNTYLEWYLQKPGQSPQLLIYKVSNRFSGVPDRFSGSGSGTDFTLKISRVEAEDVGVYYCFQGSHVPYTFGGGTKVEIKR
1.46	Hu23-11.IgG4AA (antibody, V domains shown, Full-length IgG4-AA (S228P, F234A, L235A) antibody with kappa light chain; LCDR1 mutant N28T (Kabat)) VH: EVQLVQSGAEVKKPGSSVKVSCKASGGTFSDYEMHWVRQAPGQGLEWMGLIDPETGGTVYNQKFKDRVTITADKSTSTAYMELSSLRSEDTAVYYCARERFSYYGSTSDWYFDVWGQGTTVTVSS VL: DIVMTQTPLSLPVTPGEPASISCRSSQSLVHSTGNTYLEWYLQKPGQSPQLLIYKVSNRFSGVPDRFSGSGSGTDFTLKISRVEAEDVGVYYCFQGSHVPYTFGGGTKVEIKR
